Assay results taken from patent US8632988.

Assays:
human hemoglobin (human) = human hemoglobin (human) (UniProt P69905); assay: cell-based or functional assay
mouse hemoglobin (mouse) = mouse hemoglobin (mouse) (UniProt P01942); assay: cell-based or functional assay
Sequence of UniProt P01942 (P01942 2-142, chain 1 of 2): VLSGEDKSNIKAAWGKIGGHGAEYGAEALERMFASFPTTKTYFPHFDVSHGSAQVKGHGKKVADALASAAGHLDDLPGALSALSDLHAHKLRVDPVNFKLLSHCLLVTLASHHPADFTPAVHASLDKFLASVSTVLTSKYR
Sequence of UniProt P01942 (P02088 2-147, chain 2 of 2, further chain): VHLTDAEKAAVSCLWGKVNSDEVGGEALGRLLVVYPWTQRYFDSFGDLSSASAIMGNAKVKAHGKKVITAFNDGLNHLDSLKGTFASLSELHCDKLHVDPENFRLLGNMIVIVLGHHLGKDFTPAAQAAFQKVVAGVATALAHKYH

Sequence of UniProt P69905 (P69905 2-142, chain 1 of 2): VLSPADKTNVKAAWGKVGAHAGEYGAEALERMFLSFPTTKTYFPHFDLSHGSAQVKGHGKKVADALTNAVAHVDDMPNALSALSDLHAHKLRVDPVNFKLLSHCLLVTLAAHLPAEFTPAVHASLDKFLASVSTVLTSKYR
Sequence of UniProt P69905 (P68871 2-147, chain 2 of 2, further chain): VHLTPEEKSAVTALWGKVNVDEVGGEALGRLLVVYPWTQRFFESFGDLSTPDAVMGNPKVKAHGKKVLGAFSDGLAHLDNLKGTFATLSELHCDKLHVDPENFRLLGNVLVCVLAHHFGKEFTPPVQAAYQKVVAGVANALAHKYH

IsdB on the cell wall of iron-starved S. aureus strain Newman (from UniProt A6QG30 41-613) (receptor)
time at which growth appears around hemoglobin disks on iron-deficient solid medium (human hemoglobin (human)): 24 h
time at which growth appears around hemoglobin disks on iron-deficient solid medium (mouse hemoglobin (mouse)): 72 h
